Laboratory results: the supplement of paper PMC12764529
± gives the half width of the 95% confidence interval.

Assays:
[1] = folding stability dG unfold (combined trypsin and chymotrypsin); higher = more stable
Outline: (§1)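 Unfolding free energy was derived, per protease or combined, against a sequence-predicted unfolded-state K50 and a shared folded-state K50, starting from K50 inferred by Bayesian fitting of sequencing counts. Digestion with trypsin and chymotrypsin was carried out on designed mini-proteins under 80 residues without cysteine in a PA-tagged cDNA display construct. Only designs with AlphaFold2 dimer inter-PAE above 15 were kept.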

[2] = folding stability dG unfold from chymotrypsin proteolysis; higher = more stable
Outline: as §1

[3] = folding stability dG unfold from trypsin proteolysis; higher = more stable
Outline: as §1

| Sequence | folding stability dG unfold [1] [kcal/mol] | folding stability dG unfold [2] [kcal/mol] | folding stability dG unfold [3] [kcal/mol] |
| --- | --- | --- | --- |
| SAGGSASVEIIFDPNKPTVTIYVPGPVDPNEPITLTLPGGPSLTITEIEVEKIGKEYVVKAKVTKLSAGGSA [r15_838_JUSTAS] | 1.8 ± 0.051 | 2.12 ± 0.03 | 1.14 ± 0.04 |
| SAGGSAGGSAGMKTVTETEFDPAAPVVTTTTSLVTLPPDGKPSITSTTTTTTAVAAPAAAASAGGSAGGSAG [r3_138_JUSTAS] | 1.03 ± 0.062 | 1.41 ± 0.038 | -0.0492 ± 0.05 |
| SAGGWMTWEFELEDEDGKDIKIEVEQNPGNPWWRVKIEHKGGKPIPEIPIPADSPDDAIDQARDLLKSAGGS [r16_158_TrROS] | -0.149 ± 0.33 | -0.0698 ± 0.49 | 0.17 ± 0.21 |
| SAGGYKYKREKYRDPENGQPRERYKREPPPPPPPSISININAPPEMADKIADILQDLLPNMPVGINGSAGGS [r8_437_TrROS] | 2.84 ± 0.21 | 3.04 ± 0.23 | 2.45 ± 0.088 |
| SAGGSAGGSAGGSYEVKEETEPKTGLKITTTTLPDGTIETTTINPATGEVTTTTSSPLESAGGSAGGSAGGS [r10_127_JUSTAS] | 1.73 ± 0.15 | 1.89 ± 0.052 | 1.34 ± 0.072 |
| SAGGSAGGKLKINNEEIGPDKSFPLKKGKEIKVYKDYVKVFVIDPKTNKKKEYTIKLEDLKKLFSAGGSAGG [r6_940_TrMRF] | 1.05 ± 0.18 | 1.39 ± 0.2 | 0.437 ± 0.073 |
| SAGMTFTVDVEEETFSETKVIRVPVEYDDPALVDVAAAEIREALGIPESESVTVEREPRRATITIVIPASAG [r14_804_JUSTAS] | 0.743 ± 0.051 | 0.954 ± 0.029 | 0.267 ± 0.031 |
| SAGMKLELLLPAEEAVRLFGPDFDARDLARALASEGYVVESVEAEPFPNPEEGGLYLRVTFDVRPPDASAGG [r19_376_TrMRF] | 1.38 ± 0.045 | 1.4 ± 0.061 | 1.37 ± 0.018 |
| SAGGSAAGAERVTYNYMIPNDGKWFMIRITIYRFEVKRDPEDNKYKLDLPPGDQLFINTEIMWFPNSAGGSA [r15_1040_TrROS] | 3.73 ± 0.24 | 4.14 ± 0.076 | 2.72 ± 0.12 |
| SAGGEEVVVERPPAPPPITVTIEYDEETNTVTVTVTLPNGETLTITVEAPSLEEAEAAARELLEALSSAGGS [r16_319_TrROS_Hall] | 2.93 ± 0.31 | 2.96 ± 0.37 | 2.66 ± 0.28 |
| SAGGGSVTVSLEGNTTYVRISREDGPERTYTFPQPNGEPLTFTEAPGRPGLITITRPATGEPVVLALSAGGS [r16_198_JUSTAS] | 0.219 ± 0.18 | 0.0166 ± 0.31 | 0.281 ± 0.18 |
| SAMTVERLPDGSLRITIPDPNSDTTYTIEIRRLPDGSYEVTITTTKPDGSTTTTTRPMSEEEAIAEVLASAG [r14_179_JUSTAS] | 3.6 ± 0.055 | 3.54 ± 0.068 | 3.75 ± 0.061 |
| SAGGSAGGMKIIKYDKKTKKVLIYYDEETKEWYVRNKNGKIYKFKSVEEALKKLPVKVEIVKVPSAGGSAGG [r6_752_TrROS_Hall] | 1.67 ± 0.089 | 1.6 ± 0.14 | 1.5 ± 0.035 |
| SAKVITIKLKIKVKTEEELEKAKELADELAKKLAEEGKKVKVEVVKIEVEENENGEKTVTIEIKIYLEPSAG [r14_48_TrROS_Hall] | 3.6 ± 0.35 | 3.72 ± 0.21 | 3.36 ± 0.22 |
| SMPLIIIAKKNKDGTGTILIKKGDKVIEIEFEKNIKPEELKKKAIETALTLKKKTEELGIPIEIKEIIFESA [r9_751_TrMRF] | 2.1 ± 0.091 | 2.23 ± 0.077 | 1.77 ± 0.082 |
| SMPVGVEELAERLAEEIEKELSEKTGVPVKVEKITVEEDPATGTVTVTITLYLPDGKKIREESLTVPVLESA [r9_60_JUSTAS] | 1.53 ± 0.065 | 1.52 ± 0.037 | 1.59 ± 0.051 |
| SAGGIIEIDPNGWVIRIEMYPPDGKPPKHTIPFPNATPEELIDELKDWADQLPNPGHKVKIDEITPMPSAGG [r13_29_TrROS] | 0.177 ± 0.086 | 0.372 ± 0.17 | 0.052 ± 0.071 |
| SAGGSAEKVEIKVTYDKETGKVTVEIRVEVDLSEEQLKKLKELAEELGLEVEVTVEVRYEPPPPKESAGGSA [r15_542_TrROS_Hall] | 2.27 ± 0.49 | 2.18 ± 0.31 | 2.99 ± 0.38 |
| SAGGSAGGSALEIPFEVVDEKDFLLEGDYIVRVAELKNGLRALAIYDPKTGKVLVIVSPGGSAGGSAGGSAG [r3_438_TrMRF] | 2.17 ± 0.17 | 2.07 ± 0.057 | 1.92 ± 0.15 |
| SAGGSAGGDKKGKPKPQWVTIMFKVPDDDLPPEEIAKEFPGVKIERSPGMYMITVPVNGKWIPFSAGGSAGG [r6_739_TrROS] | 1.13 ± 0.093 | 1.25 ± 0.14 | 1.02 ± 0.039 |
| SAGGATIELEAEEHPETKKITIYVKSENPILTIEKIAKELKEKEDDIELTLVNEDGVPYTIKLEDLISAGGS [r8_236_TrMRF] | 0.217 ± 0.3 | 0.38 ± 0.2 | -0.957 ± 0.47 |

| Sequence | folding stability dG unfold [1] [kcal/mol] | folding stability dG unfold [2] [kcal/mol] | folding stability dG unfold [3] [kcal/mol] |
| --- | --- | --- | --- |
| SAGGSMSIPLKTEEDVKKAVEYIKQKLLEEGAPEGLKIDKVEVTKLPDGTYKITITFPNKTFELVGSAGGSA [r2_120_JUSTAS] | 2.64 ± 0.079 | 2.64 ± 0.047 | 2.56 ± 0.052 |
| SAGGSAGGSGNSKLTATLTLEFYDPKTGKKIAKIELKPVITTLPNGTAKIDVEYKITFTNEDDSAGGSAGGS [r12_629_TrMRF] | 3.39 ± 0.11 | 3.74 ± 0.11 | 2.6 ± 0.14 |
| MNVTINITVLSPDSSGYTMKATVTFPETPVTTSKEYKTSDPVSAVEEIIKELVDEENLSNATVTTYPSSRLS [r1_399_JUSTAS] | 0.0431 ± 0.19 | 0.377 ± 0.35 | -0.562 ± 0.22 |
| SMKPGDTVIVKIEIEKKVDGKTVKKTIEKEIKIKPGETVEIELKGLPKGAKVRVEIFNADGKLIEEKELPSA [r9_478_TrROS_Hall] | 1.8 ± 0.08 | 1.46 ± 0.042 | 2.23 ± 0.075 |
| SQTIRLELKNPDGRKIRIEIPVQRNPGNGYYYVSVKIEYYDPNGKPKERPITAPFNSPEDAEDQAREALRSA [r9_337_TrROS] | 1.69 ± 0.28 | 2.06 ± 0.16 | 1.63 ± 0.12 |
| SAGGSAGGSAGGSGMKYKVTVTFPGGEVRSLEVDSVEEALEKLKEENRPIKEVTVEPLESAGGSAGGSAGGS [r4_213_JUSTAS] | 2.44 ± 0.16 | 2.54 ± 0.13 | 2.2 ± 0.14 |
| SAGGKTVPIMFPFDSPDQIEEIIEELAKPGFDDVKPERIEPEPPPDGNYYFPVRIEVDPKNGKIEITFSAGG [r13_174_TrROS] | -0.0243 ± 0.29 | 0.185 ± 0.19 | 0.0445 ± 0.13 |
| SAGGSAGGKPIWEFELEFPDGYKIRITYWPGYVRVEIHNPDGRQLEVNVPGKSPEDALDALLDASAGGSAGG [r6_459_TrROS] | 3.88 ± 0.24 | 4.19 ± 0.19 | 3.32 ± 0.22 |
| SAGGSAGGSMTIDGNALYEELGKDLPDEEKRKLFEEKAEEIAKKLGIPNMKVNINIKKPNEIKSAGGSAGGS [r12_666_JUSTAS] | 0.0998 ± 0.078 | 0.135 ± 0.051 | -0.213 ± 0.093 |
| SAGGSAGGSKKKVKVVKVEKPEGDYYVVTVYYEDGKLLKKVVFPKGVKPEEVLEKVKKLVEEESAGGSAGGS [r12_798_TrMRF] | 2.51 ± 0.076 | 2.82 ± 0.049 | 1.95 ± 0.043 |
| SAGGSAKKEVYKINIKVYNKNGKKVKEIKIELPEELKGKTIEEIAKELAKKLNIEKIEVKIEPVKPSAGGSA [r15_333_TrROS_Hall] | 2.78 ± 0.21 | 3.19 ± 0.1 | 1.61 ± 0.18 |
| SAGMVVENPGTETRVVFDPETGELYVEVGDKVYRIPLPPGVEVEFEVDPEAGTIRVYFPNTGEVLELPLSAG [r5_858_TrMRF] | 3.63 ± 0.051 | 3.38 ± 0.042 | 4.19 ± 0.13 |
| SMTPEEVKALAEELAERLKEEGYEVEVKVTVEEVDGEKYVTIEIEVRRPDGSTETFRLVIREDGSIEIYPSA [r9_1027_TrROS_Hall] | 4.37 ± 0.17 | 4.54 ± 0.17 | 3.49 ± 0.19 |
| SAGGSAGGMVIEFPKEKVEEVKKELLDAGKPDWVIVTDPNDPDIIKIMPKSLAEEKGWKYTPLLSAGGSAGG [r6_710_JUSTAS] | 2.09 ± 0.16 | 2.06 ± 0.043 | 2.33 ± 0.073 |
| SAGGSAGGSAAPDEKLKITVELVDPNNGKRIEEKEYPNMTIEEVKKEAEEKGLKIVKIEVSSAGGSAGGSAG [r3_423_JUSTAS] | -0.173 ± 0.29 | -0.116 ± 0.061 | -0.382 ± 0.083 |
| SAGGSAMKEIEINGYKVRIVKIDEKTGKITIYLYPNASEEMKEKVAELLKELGFEIEVEEVSPEELSAGGSA [r15_570_TrROS_Hall] | 3.44 ± 0.16 | 3.53 ± 0.14 | 3.4 ± 0.28 |
| SAGGSAGGSMVTPDGRLVIEIEVSEEDIEKLKEEARKKLGVKEVKVEVEEKDGKLKVRIVVEPSAGGSAGGS [r12_929_TrROS_Hall] | 1.77 ± 0.29 | 2.19 ± 0.15 | 0.743 ± 0.092 |
| SAGGSAGGSAGVVVKKPGTDVVYEITEEPGSYKVTITDPKTGTTKEFTVSPEVSIESLLLSAGGSAGGSAGG [r11_772_JUSTAS] | 1.15 ± 0.14 | 0.757 ± 0.13 | 1.22 ± 0.092 |
| SAGGDEDKPKPKIEPKKEIEIVLPYPEDEVTPEELKARIEEETGEKITEIEVTRIPNSNEYKVKFTVESAGG [r13_457_JUSTAS] | 0.577 ± 0.13 | 0.68 ± 0.15 | 0.227 ± 0.04 |
| SAGGSAGGSAGPENKNYMVMEMTIDIWIPLPPNAKVVFDPDEGKWKYVPIKIPIRIVMPWSAGGSAGGSAGG [r11_257_TrROS] | 3.2 ± 0.15 | 3.43 ± 0.12 | 2.91 ± 0.14 |
| SAGGSAGGSAGGEPELVFKVRVRTKDGRELEIEVSAEDLEKLLEALPDIEEVEIEEVEPSAGGSAGGSAGGS [r10_437_TrROS_Hall] | 2.6 ± 0.14 | 2.68 ± 0.071 | 2.39 ± 0.087 |
